This note sets out measurements from article doi:10.1101/2025.07.22.666160, “Alphaherpesvirus pUL21 homologues use non-canonical motifs to compete with cellular adaptors for protein phosphatase 1 binding” (bioRxiv, 2025).

Common to all, as to settings: both partners purified
Test [1] deals with T1, mouse PP1γ catalytic domain (residues 7–300)-H6 (mouse, UniProt P63087 7-300).
T1 construct: Protein phosphatase 1 gamma catalytic domain, mouse, residues 7-300; also called PP1 catalytic domain; source: E. coli T7 Express lysY/Iq, purified (Ni-NTA, SEC)
T1 sequence (P63087 7-300): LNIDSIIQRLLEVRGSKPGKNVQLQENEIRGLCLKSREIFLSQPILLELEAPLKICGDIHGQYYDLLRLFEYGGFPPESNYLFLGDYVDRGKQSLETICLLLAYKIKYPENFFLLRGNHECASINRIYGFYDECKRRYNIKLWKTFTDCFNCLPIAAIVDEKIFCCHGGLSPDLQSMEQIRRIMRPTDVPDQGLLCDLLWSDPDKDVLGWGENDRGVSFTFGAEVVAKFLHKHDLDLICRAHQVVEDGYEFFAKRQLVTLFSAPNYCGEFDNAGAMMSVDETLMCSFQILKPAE
Put plainly: fluorescence polarisation; competition fluorescence anisotropy; pUL21 titrated into a pre-formed complex of 2 nM FITC-GADD34 peptide and 250 nM PP1γ; Tris pH 8.5 in place of HEPES pH 8. In general terms: Polarisation of emitted light reports the rotation of a fluorescent probe.

For test [2], the target named is T1, mouse PP1γ catalytic domain (residues …). Kind of test: ITC; 25°C; 50 mM HEPES pH 8.0, 500 mM NaCl, 0.5 mM TCEP; 12 x 3 µL injections; one-site binding model; syringe and cell contents in Table S1. (Isothermal titration calorimetry measures the heat released or taken up as one component is titrated into another.)
For test [3] the target is unchanged. Kind of test: fluorescence polarisation; competition fluorescence anisotropy; competitor titrated into a pre-formed complex of 2 nM FITC-GADD34 peptide and 250 nM PP1γ (final); 27°C; 50 mM HEPES pH 8.0, 500 mM NaCl, 0.05% TWEEN-20.
The target is the same in test [4]. Kind of test: fluorescence polarisation; fluorescence anisotropy; serial dilution of PP1γ catalytic domain with 2 nM FITC-GADD34 peptide; 27°C; 50 mM HEPES pH 8.0, 500 mM NaCl, 0.05% TWEEN-20; one-site model.
Test [5] has the same target. Kind of test: fluorescence polarisation; fluorescence anisotropy; serial dilution of PP1γ catalytic domain with 2 nM FITC-GADD34 peptide; Tris pH 8.5 in place of HEPES pH 8.

Primed or numbered codes have the meaning given here. Where no end group is shown, it is not given here. FITC′ = fluorescein isothiocyanate; Ahx = NCCCCCC(=O)O

B1: pUL21-RVxF-H6 (A237V+V239F) (natural protein)
chain: MELSYATTMHYRDVVFYVTTDRNRAYFVCGGCVYSVGRPCASQPGEIAKFGLVVRGTGPDDRVVANYVRSELRQRGLQDVRPIGEDEVFLDSVCLLNPNVSSELDVINTNDVEVLDECLAEYCTSLRTSPGVLISGLRVRAQDRIIELFEHPTIVNVSSHFVYTPSPYVFALAQAHLPRLPSSLEALVSGLFDGIPAPRQPLDAHNPRTDVVITGRRAPRPIAGSGAGSGGAGAKRVTFSEFVQVKHIDRVGPAGVSPAPPPNNTDSSSLVPGAQDSAPPGPTLRELWWVFYAADRALEEPRADSGLTREEVRAVRGFREQAWKLFGSAGAPRAFIGAALGLSPLQKLAVYYYIIHRERRLSPFPALVRLVGRYTQRHGLYVPRPDDPVLADAINGLFRDALAAGTTAEQLLMFDLLPPKDVPVGSDVQADSTALLRFIESQRLAVPGGVISPEHVAYLGAFLSVLYAGRGRMSAATHTARLTGVTSLVLAVGDVDRLSAFDRGAAGAASRTRAAGYLDVLLTVRLARSQHGQSV
notes: HSV-1 pUL21 with A237V and V239F, made from pUL21-H6 (the full-length protein) by site-directed mutagenesis; methods, results and legend say V239F; also called RVxF pUL21; A237V+V239F (RVxF) mutant; source: E. coli T7 Express lysY/Iq, purified (Ni-NTA, SEC); not shown: His6, C-terminal, kept
The molecule B1 yielded an IC50 in test [1] of 337 nM.

B2: pORF38-NLT-H6 (residues 1–263) (domain or fragment)
chain: MEFPYHSTVSYNGVTFYFNERATRAYFICGGCLISIPRKHGGEIAKFGHVVRGVGPGDRSVASYVRSELNRTGKTWAVSSNNNCVFLDRVALLAAGSGAVDRDLCGTFDVEVEDPTLADYLVSLPVTHLTLVAGVDVTRENKLKLFPTPTAINTTNGFMYVPNEASFSLVYMRMLELPESLQELVSGLFDGTPEIRDALNGSNDDEKTSIIVSRRAADVVTEDVKADDVPISGEPYSEKQPRRRKKSDHITLSNFVQIRTIPR
notes: VZV pORF38 residues 1-263: N-terminal domain plus linker region to the end of the TROPPO motif (NLT region); Sub-cloned into the vector pOPTnH; also called pOPF38-NLT; source: E. coli T7 Express lysY/Iq, purified (Ni-NTA, SEC); not shown: His6, C-terminal, kept
Take B2: in test [2], the Kd is 497 nM and the “stoichiometry N” value stood at 1. Moreover, the concentration for half-maximal inhibition (IC50) in test [3] is 417 nM.

B3: GADD34 RVxF+ϕϕ[xF] peptide (residues 552–568), FITC-labelled (peptide)
peptide: {FITC′-Ahx}-KARKVRFSEKVTVHFLA
notes: GADD34 (PP1 regulatory subunit 15A, PPP1R15A), residues 552-568 with the RVxF and ϕϕ[xF] motifs; also called GADD34 peptide; fluorescent GADD34 peptide; source: synthetic peptide (GenScript, >95% purity)
As for B3, the dissociation constant Kd was 144 nM in test [4] and 55 nM in test [5].

As a reminder, the IC50 is the concentration that inhibits the measured activity by half. Low readings indicate higher potency, high ones lower potency. What is called Kd is the constant that tells how readily two partners part at equilibrium. Higher therefore signals weaker binding. The stoichiometry N is a count of units in the complex or per binding partner.
